B1: BmbD (YcaO protein, thiazoline-forming), maltose-binding protein fusion (enzyme)
chain: MREATATECELREVVHRSYPSERTVTVRCTVRPAEGSAQADGYGTATTEAVARAKALSEAVERLVACTPFATVARPPTACADPGTGSGPVPPFPAAGVRTAPEGCAGRVYRPLTGGGPRRVPLYWSSPWTAGAELRAGTLTAAEARLSSTVGWAVAPTPEGALRGALLELTELIDYGVFLHRRLAGPARRPSAGDRTLVVPLGGIGRTPAVLAVAYGRGRLMPATGLGCGATRGEATDRALLELAQAETMWRSNPTAEPAERFFLRRFERWPLLARCATLDFDLPDPRDPPARSGPAGGPGPYDDGPCPASPLEELEAGGIRVWADSGAVDISGPDIPRTRLCFAHVVSDPQPLLGLVRAGIPVFDTGEVRRTLDPSRRPADRPADRGGHRDRSADRGPARRGHEGRRSA
B2: BmbE (YcaO protein, macrolactamidine-forming), maltose-binding protein fusion (enzyme)
chain: MTRPADPQTAPQTEAATETDPLTAVLLDGATKEDVPPERETDIRQALASVGDWLAAEGLTADIRKYGIESAPTYEVRLSEASGALCSRSSGKGLGHRSMASALFESAEHYHLDWRRDPRASEAEFRPGREIAEQATARRSALLGRLGQIMPDAPVLTRTYRPVEEALTGRAGDGEADGPHRHPVFLRDGGYRNWPHPDDDRSFQPLWHYTSSAGYAAGATRHEALVHAVNELIERDAWSYQLARSYFGLPGEGPELRVVEHGTLPAELRELTRTVEEVRGAPVLIVDITCDTGVPAYVVCDARSREDVRLIGSGASPVRTYAVQRALLEYLQVRTMFENGPVDADTEAGQIGTALARYPRHLAAARFDIHRLPHESTAFEADDGLPAATGPERLLRHLVDRLRESGVEAHHRVLTPPGPVTVVDVVAPGLEMFDKARAGYPVLPTGRLGERLRPRGDGGGARR

Some results are limits rather than exact numbers.

4 molecules from PMC5915351 can be followed below.

The assay has as its target BmbC-C8S/S43C, fluorescein-labelled (bottromycin precursor peptide double variant) (Streptomyces bottropensis). The assay is described as follows: fluorescence polarisation. On the technique in general: Polarisation of emitted light reports the rotation of a fluorescent probe.
The molecule “RRE domain excised from BmbF (radical-SAM methyltransferase) (domain or fragment)” yielded a Kd of 597 nM.

The molecule “RRE domain excised from BmbB (radical-SAM methyltransferase) (domain or fragment)” gave a Kd of 876 nM. For the molecule B1, the Kd is over 50000 nM. B2 gave a dissociation constant Kd of over 50000 nM.

As usually defined, the Kd is the concentration at which binding is half-saturated.
